Measurements as given in US20130266567A1 (published 2013).
Several values for one entry are separate records, joined by “and”; a condition that tells them apart may be missing. Equal values may be shown once.

What was measured:
Mouse serum albumin [1] = target: T1, Mouse serum albumin (mouse, UniProt P07724 25-608); assay: SPR, BIAcore 3000, serum albumin coupled to CM5 chip;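 further: Cross-reactivity of anti-serum albumin domain antibodies measured against human, cynomolgus monkey, rat and mouse serum albumin, binding kinetics giving Kd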
T1 construct: mature; bought purified protein; coupled to CM5 BIAcore chip; also called mouse SA; MSA
Experimental: (§1) Cross-reactivity of the AlbudAbs™ (ie, anti-serum albumin dAbs) was determined against human, Cynomolgus monkey (cyno), rat and mouse serum albumin using surface plasmon resonance (SPR). In this case, Biacore™ was used. Biacore™ 2000/3000 was used for the supernatant screens and determination of binding kinetic all of dAbs described herein. Biacore™ T100 was used for the determination of cross-reactivity of lead Vk and VH Albudabs to a wider range of species' SAs (12 in total). Protein samples were run on the T100 BIAcore as described for the BIAcore2000/3000 experiments. […] Where appropriate, a kinetic Langmuir 1:1 fitting model was used.

Human serum albumin [2] = target: T2, Human serum albumin (human, UniProt P02768 25-609); assay: as above
T2 construct: coupled to CM5 BIAcore chip; also called human SA; HSA
Experimental: as §1

Mini Pig serum albumin = Mini Pig serum albumin (mini pig); assay: SPR, BIAcore T100, equilibrium KD
Experimental: as §1

Ferret serum albumin = Ferret serum albumin (ferret); assay: SPR, BIAcore T100, equilibrium KD
Experimental: as §1

Rabbit serum albumin = Rabbit serum albumin (rabbit, UniProt P49065 25-608); assay: SPR, BIAcore T100, equilibrium KD
Experimental: as §1

Pig serum albumin = Pig serum albumin (pig, UniProt P08835 25-607); assay: SPR, BIAcore T100, equilibrium KD
Experimental: as §1

Guinea Pig serum albumin = Guinea Pig serum albumin (guinea pig); assay: SPR, BIAcore T100, equilibrium KD
Experimental: as §1

Human serum albumin [3] = target: T2, Human serum albumin; assay: SPR, BIAcore 3000, serum albumin coupled to CM5 chip; first of two independent measurements on different protein batches
Experimental: as §1

Rat serum albumin [4] = target: T3, Rat serum albumin (rat, UniProt P02770 25-608); assay: SPR, BIAcore 3000, serum albumin coupled to CM5 chip;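 further: Cross-reactivity of anti-serum albumin domain antibodies measured against human, cynomolgus monkey, rat and mouse serum albumin, binding kinetics giving Kd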
T3 construct: coupled to CM5 BIAcore chip; also called rat SA; RSA
Experimental: as §1

Human serum albumin [5] = target: T2, Human serum albumin; assay: SPR, BIAcore T100, equilibrium KD
Experimental: as §1

Dog serum albumin = Dog serum albumin (dog, UniProt P49822 25-608); assay: SPR, BIAcore T100, equilibrium KD
Experimental: as §1

Mouse serum albumin [6] = target: T1, Mouse serum albumin; assay: SPR, BIAcore T100, equilibrium KD
Experimental: as §1

Rat serum albumin [7] = target: T3, Rat serum albumin; assay: SPR, BIAcore T100, equilibrium KD
Experimental: as §1

Marmoset serum albumin = Marmoset serum albumin (marmoset); assay: SPR, BIAcore T100, equilibrium KD
Experimental: as §1

Human serum albumin [8] = target: T2, Human serum albumin; assay: SPR, BIAcore 3000, serum albumin coupled to CM5 chip; second of two independent measurements; marked with an unexplained caret
Experimental: as §1

Sheep serum albumin = Sheep serum albumin (sheep, UniProt P14639 25-607); assay: SPR, BIAcore T100, equilibrium KD
Experimental: as §1

Cynomolgus serum albumin [9] = target: T4, Cynomolgus serum albumin (Cynomolgus monkey, UniProt A2V9Z4 25-608); assay: SPR, BIAcore T100, equilibrium KD
T4 construct: mature; purified native protein; coupled to CM5 BIAcore chip; also called cyno SA; CSA
Experimental: as §1

Cynomolgus serum albumin [10] = target: T4, Cynomolgus serum albumin; assay: SPR, BIAcore 3000, serum albumin coupled to CM5 chip;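 further: Cross-reactivity of anti-serum albumin domain antibodies measured against human, cynomolgus monkey, rat and mouse serum albumin, binding kinetics giving Kd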
Experimental: as §1

B1: DOM7r-31-14 (VHH)
VHH: EVQLLESGGGLVQPGGSLRLSCTASGFTFRHYRMGWVRQAPGKGLEWVSWIRPDGTFTYYADSVKGRFTISRDNSKNTLYLQMNSLRAEDTAVYYCAKSYMADRFDYWGQGTLVTVSS
notes: VH immunoglobulin single variable domain (dAb, AlbudAb), not a camelid VHH; tested with a myc tag; also called 7r31-14 (Parent); not shown: myc tag
B1 was tested, and the Kd (Mouse serum albumin [1]) was 6 nM and 12 nM and 14.2 nM.

B2: DOM7r-31-101 (VHH)
VHH: EVQLLESGGGLVQPGGSLRLSCTASGFTFRHYRMGWVRQAPGKGLEWVSWIRPDGTFTYYADSVKGRFTISRDNSKNTLYLQMNSLRAEDTAVYYCAKSYQAGTFDYWGQGTLVTVSS
notes: VH immunoglobulin single variable domain (dAb, AlbudAb), not a camelid VHH; tested with a myc tag; not shown: myc tag
In the case of B2, the Kd (Human serum albumin [2]) is reported as 367 nM and 240 nM.

B3: DOM7r-31-104 (VHH)
VHH: EVQLLESGGGLVQPGGSLRLSCTASGFTFRHYRMGWVRQAPGKGLEWVSWIRPDGTFTYYADSVKGRFTISRDNSKNTLYLQMNSLRAEDTAVYYCAKSYMAGTFDYWGQGTLVTVSS
notes: as for B2
Binder B3 has a Kd (Mini Pig serum albumin) of 412 nM, a Kd (Ferret serum albumin) of 13.9 nM and a Kd (Rabbit serum albumin) of 1990 nM. It also gave a Kd (Pig serum albumin) of 415 nM, a Kd (Guinea Pig serum albumin) of 1630 nM and a Kd (Human serum albumin [3]) of 89.1 nM. For the same binder, the Kd (Rat serum albumin [4]) was 11.9 nM and 7.6 nM, the Kd (Human serum albumin [5]) was 25.9 nM and the Kd (Dog serum albumin) was 8.26 nM. It also gave a Kd (Mouse serum albumin [6]) of 59.5 nM, a Kd (Rat serum albumin [7]) of 6.09 nM and a Kd (Marmoset serum albumin) of 4900 nM. It also gave a Kd (Human serum albumin [8]) of 81 nM.

B4: DOM7r-31-100 (VHH)
VHH: EVQLLEPGGGLVQPGGSLRLSCTASGFTFRHYRMGWVRQAPGKGLEWVSWIRPDGTFTYYADSVKGRFTISRDNSKNTLYLQMNSLRAEDTAVYYCAKSYLSGTFDYWGQGTLVTVSS
notes: as for B2
B4 was tested, and the Kd (Human serum albumin [2]) was 260 nM and 287 nM, the Kd (Mouse serum albumin [1]) was 5.4 nM and 12.7 nM and the Kd (Rat serum albumin [4]) was 40 nM and 41 nM.

B5: DOM7r-31-102 (VHH)
VHH: EVQLLESGGGLVQPGGSLRLSCTASGFTFRHYRMGWVRQAPGKGLEWVSWIRPDGTFTYYADSVKGRFTISRDNSKNTLYLQMNSLRAEDTAVYYCAKSYHADKFDYWGQGTLVTVSS
notes: as for B2
In the case of B5, the Kd (Human serum albumin [2]) is reported as 158 nM and 100 nM and the Kd (Rat serum albumin [4]) is reported as 67 nM and 30 nM.

B6: DOM7r-31-103 (VHH)
VHH: EVQLLESGGGLVQPGGSLRLSCTASGFTFRHYRMGWVRQAPGKGLEWVSWIRPDGTFTYYADSVKGRFTISRDNSKNTLYLQMNSLRAEDAAVYYCAKSYMSGTFDYWGQGTLVTVSS
notes: as for B2
B6 was tested, and the Kd (Human serum albumin [2]) was 200 nM and 95 nM and the Kd (Rat serum albumin [4]) was 40 nM.

B7: DOM7r-92-100 (VHH)
VHH: EVQLLESGGGLVQPGGSLRLSCAASGFTFDTSSMLWVRQAPGKGLEWVSVIHQSGTPTYYADSVKGRFTISRDNSKNTLYLQMNSLRAEDTAVYYCAKFPSSRMKFDYWGQGTLVTVSS
notes: VH immunoglobulin single variable domain (dAb, AlbudAb), not a camelid VHH; tested with a myc tag; MALLS: dimer 10%, monomer 90%; also called DOM7r-92-100 myc; not shown: myc tag
B7 was tested, and the Kd (Mini Pig serum albumin) was 308 nM, the Kd (Sheep serum albumin) was 569 nM and the Kd (Ferret serum albumin) was 317 nM. For the same binder, the Kd (Rabbit serum albumin) was 136 nM, the Kd (Pig serum albumin) was 191 nM and the Kd (Mouse serum albumin [1]) was 33 nM and 90 nM. For the same binder, the Kd (Human serum albumin [5]) was 3.56 nM, the Kd (Cynomolgus serum albumin [9]) was 10.7 nM and the Kd (Dog serum albumin) was 450 nM. For the same binder, the Kd (Mouse serum albumin [6]) was 61.5 nM, the Kd (Rat serum albumin [7]) was 54.3 nM and the Kd (Marmoset serum albumin) was 7.37 nM.

B8: DOM7r-92-102 (VHH)
VHH: EVQLLESGGGLVQPGGSLRLSCAASGFTFDTSSMLWVRQAPGKGLEWVSVIHQSGTPTYYADSVKGRFTISRDNSKNTLYLQMNSLRAEDTAVYYCAKFPSSQFRFDYWGQGTLVTVSS
notes: as for B2
Work on B8 yielded a Kd (Human serum albumin [2]) of 28 nM, a Kd (Cynomolgus serum albumin [10]) of 32 nM and a Kd (Mouse serum albumin [1]) of 280 nM. It also gave a Kd (Rat serum albumin [4]) of 100 nM.

B9: DOM7r-92-4 (VHH)
VHH: EVQLLESGGGLVQPGGSLRLSCAASGFTFDTSSMLWVRQAPGKGLEWVSVIHQSGTPTYYADSVKGRFTISRDNSKNTLYLQMNSLRAEDTAVYYCAKFPSTHGKFDYWGQGTLVTVSS
notes: VH immunoglobulin single variable domain (dAb, AlbudAb), not a camelid VHH; tested with a myc tag; also called 7r92-4 (Parent); not shown: myc tag
In the case of B9, the Kd (Human serum albumin [2]) is reported as 260 nM and 420 nM.

B10: DOM7r-92-101 (VHH)
VHH: EVQLLESGGGLVQPGGSLRLSCAASGFTFDTSSMLWVRQAPGKGLEWVSVIHQSGTPTYYADSVKGRFTISRDNSKNTLYLQMNSLRAEDTAVYYCAKFPSRKMKFDYRGQGTLVTVSS
notes: as for B2
For B10, the Kd (Human serum albumin [2]) was 15 nM and 8 nM, the Kd (Cynomolgus serum albumin [10]) was 120 nM and the Kd (Mouse serum albumin [1]) was 56 nM. The Kd (Rat serum albumin [4]) was 23 nM and 16 nM.
